The assay addresses SARS-CoV-2 Spike (RBD)-Fc (SARS-CoV-2, UniProt P0DTC2). The experiment in a line: ELISA.

For the molecule EDLFYQ [wild type Spike S1-Interacting Domain of ACE2 Receptor (SPIDAR) peptide], the binding result is reported as “binds”.

The record behind these values is article PMC8664124 (Journal of immunology (Baltimore, Md. : 1950), 2021).
